Assay results published in PMC8721105.

Experiments:
[1] = biological target: GST-TbPEX3d44 (T. brucei); test: AlphaScreen or HTRF
[2] = biological target: TbPEX19FL-His (T. brucei); test: ELISA
[3] = biological target: TbPEX19FL-His (T. brucei); test: AlphaScreen or HTRF

| Substance | Kd [1] [nM] | Kd [2] [nM] | Kd [3] [nM] |
| --- | --- | --- | --- |
| tag-free TbPEX19 (natural protein) | 9.7 |  |  |
| GST-TbPEX3d44 (domain or fragment) |  | 0.16 | 32.8 |
| TbPEX19-Strep (natural protein) | 3.7 |  |  |
